Data on four substances can be found in PMC9938897.

Data set [1] deals with CvkR (Alr3614) (Anabaena sp. PCC 7120) (UniProt A0ACD6B984). In words: DNase I footprinting. The following applies: EMSA: 10 mM Tris-HCl pH 8.0, 25 mM MgCl2, 50 mM NaCl, 1 mM DTT, 1 mM EDTA, 50 ug/mL poly(dI-dC), 0.01% NP-40, 10% glycerol, 2 nM probe, 25 C 30 min …. For orientation: Mobility shift assays separate free from complexed probe on a gel.
Data set [2] addresses CvkR (Alr3614), MerR-type transcriptional regulator of the Anabaena sp. PCC 7120 CAST system, 150-residue form CvkR-S (Anabaena (Nostoc) sp. PCC 7120). In words: SEC; analytical gel filtration, Superdex 75 10/300 GL, 10 mM Tris-HCl pH 8.8, 100 mM NaCl, 2 mM beta-mercaptoethanol; ~500 uL untagged protein at ~0.6 mg/mL; calibrated with LMW standards; self-association (dimer). For orientation: In gel filtration, larger molecules generally elute earlier.

Data set [3] concerns the target CvkR R42E (Anabaena (Nostoc) sp. PCC 7120). The data set is described as above.
Data set [4] addresses CvkRmut (R19A-R20A-Q23A-K40A-R42A-N66A) (Anabaena (Nostoc) sp. PCC 7120). Described as above.

CvkR (Alr3614) (Anabaena sp. PCC 7120), sequence (A0ACD6B984 entry or part of it): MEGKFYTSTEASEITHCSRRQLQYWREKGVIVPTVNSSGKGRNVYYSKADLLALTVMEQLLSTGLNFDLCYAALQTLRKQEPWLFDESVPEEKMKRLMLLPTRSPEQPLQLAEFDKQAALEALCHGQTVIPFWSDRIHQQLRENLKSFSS

Turning to “AACTCCTTTCTCTCGCCAATACTGCAACTGGCGGCGAGAGCAATGAGTAATTTCTGATGCTTCTGTGCTTGTGTAGAACTTTCCTTCCATAAGAAACATCCTATAGAAGCATCTTCTAAAACACATTAGTGCTTTGTATAACATTATGTGTTTTGTATGGTATTTTATTTTTATGAGCCAAAAAACTATTCAATGTCGCTTAATTGCCAGTGAATCTACCCGCCAAAAACTCTGGAAGTTAATGGCAGAATCGAACACACCTCTAATTAACGAACTGCTTCAGCAGC (double strand) [Pcas12k footprint probe]”, in data set [1], the binding entry is “binds”.

For “CvkR (Alr3614), MerR-type transcriptional regulator of the Anabaena sp. PCC 7120 CAST system, 150-residue form CvkR-S (natural protein)”, the stoichiometry N in data set [2] came out at 2.

On to CvkR R42E (natural protein), for which, in data set [3], the stoichiometry N was 2.

In turn, “CvkRmut (R19A-R20A-Q23A-K40A-R42A-N66A) (natural protein)” displayed a stoichiometry N in data set [4] of 2.

For orientation: stoichiometry N means a count of units in the complex or per binding partner.
